Results from article PMC12666658.

Legend:
[1] = target: CD3 receptor on T cells (human PBMCs) (human (endogenous in PBMCs)) (UniProt P07766)
[2] = target: CD3 receptor on T cells (human PBMCs) (human (endogenous in PBMCs)) (UniProt P07766); remark: listed apart in the source
[3] = target: CD3 receptor on T cells (human PBMCs) (human (endogenous in PBMCs)) (UniProt P07766); remark: listed apart in the source

Sequence of UniProt P07766 (P07766 23-207): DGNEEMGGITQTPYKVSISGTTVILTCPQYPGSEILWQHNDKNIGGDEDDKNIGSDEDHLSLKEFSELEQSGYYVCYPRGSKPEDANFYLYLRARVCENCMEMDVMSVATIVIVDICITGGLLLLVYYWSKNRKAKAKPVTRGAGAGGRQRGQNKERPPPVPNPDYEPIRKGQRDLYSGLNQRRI

SadP-scFv UCHT1 lectibody (from UniProt G5DSS1)
fold increase of CD71 on CD3+ T cells (PBMCs co-cultured with Gb3+ Ramos cells), 5 or 10 nM lectibody, 24 and 48 hours; highest at 10 nM and 48 hours [1]: 25 fold | fold increase of CD69 on CD3+ T cells (PBMCs co-cultured with Gb3+ Ramos cells), 5 or 10 nM lectibody, 18 and 24 hours; highest at 10 nM and 24 hours [2]: 5 to 8 fold | specific lysis of Gb3+ Ramos cells by PBMCs (E:T 5:1), bioluminescence-based cytotoxicity assay, 0.2–10 nM lectibody, 7 to 48 hours; highest at 10 nM and 48 hours [3]: 65%
